target: T1, human CXCR6 (human, UniProt O00574 1-342); assay: screening on cells overexpressing CXCR6, one single concentration, yes/no
T1 construct: also called hu-CXCR6; wild type human CXCR6
T1 sequence (O00574 whole entry): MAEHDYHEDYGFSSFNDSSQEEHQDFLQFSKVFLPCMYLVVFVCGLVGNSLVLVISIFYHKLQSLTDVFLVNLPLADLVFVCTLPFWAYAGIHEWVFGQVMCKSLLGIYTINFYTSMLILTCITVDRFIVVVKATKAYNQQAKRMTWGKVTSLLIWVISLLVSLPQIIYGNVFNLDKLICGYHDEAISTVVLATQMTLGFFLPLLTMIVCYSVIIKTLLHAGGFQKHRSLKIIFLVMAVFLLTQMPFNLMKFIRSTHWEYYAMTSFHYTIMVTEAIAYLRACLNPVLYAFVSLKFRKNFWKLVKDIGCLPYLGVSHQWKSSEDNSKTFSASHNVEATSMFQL

| Binder | binding result |
| --- | --- |
| COXs-1B10 (antibody, V domains shown, Mouse antibody) VH: QVTLKESGPGILKASQTLSLTCSFSGFSLSTSGMGIGWIRQPSGKGPEWLAHIWWDDEKYYRPSLKSRLTVSKDTSRNQVFLNITSVDTTDSASYYCVQRTPGRFAYWGQGTLVTVST VL: DIVMTQSPSSLAVSIGQKVIMSCKSSQSLLSSRTQKNYLAWYQQKPGQSPKLLVYFASIRESGVPDRFTGSGSGTDFTLTISTVQAEDLAVYYCQQYFLTPYTFGGGTKLEIK | binds |
| Beacon2-D5 (antibody, V domains shown, Mouse-derived; tested at the screening stage) VH: EVQLVESGGGLVQPKGSLKLSCAASGFTFNTYAMNWVRQAPGKGLEWVARIRSKSNNYATYYADSVKDRFTISRDDSQSMLYLQMNNLKTEDTAMYYCLSHGAFAYWGQGTLVTVSA VL: not shown | binds |
| CNE-6H7-G7 (antibody, V domains shown, Mouse-derived; tested at the screening stage) VH: EVQLVESGGGLVQPKGSLKLSCAASGFSFNTYAMNWVRQAPGKGLEWVARIRSKSNNYGTYYADSVKDRFTISRDDSESMLYLKMNNLKTEDTAMYYCLSHGSSAYWGQGTLVTVSA VL: not shown | binds |
| CNE-6E10 (antibody, V domains shown, Mouse-derived) VH: EVQLVESGGGLVQPKGSLKLSCAASGFSFNTYAMNWVRQAPGKGLEWVARIRSKTNSYETYYADSVKDRFTISRDDSESMLYLQMNNLKTEDTAVYYCLSHGAFAYWGQGTLVTVSA VL: not shown | binds |
| CNGs-1C1 (antibody, V domains shown, Mouse-derived; tested at the screening stage) VH: EVQLVESGGGLVRPKGSLKLSCAASGFSFNAYAMNWVRQAPGKGLEWVARIRSKSNNYATYYADSVKDRFTISRDDSESMLYLQMNNLKTEDTAMYYCLSHGAFAYWGQGTLVTVSA VL: not shown | binds |
| CNF-2F8 (antibody, V domains shown, Mouse-derived; tested at the screening stage) VH: EVQLVESGGGLVQPKGSLKLSCAASGFSFQTYAMNWVRQAPGKGLEWVARIRSKRNNYATYYADSVKDRFSISRDDSENMLYLQMNNLKTEDTAMYYCLSHGAFAYWGQGTLVTVSA VL: not shown | binds |
| CNGs-1B7 (antibody, V domains shown, Mouse-derived) VH: EVKLEESGGGLVRPGGSMKLSCVASGFTFSDYWMNWVRQSPEKGLEWLAQIRLNSGNYAARYAESVKGRFTISRDDSKNSVYLQMINLRAEDTGIYFCTSNAWLANWGQGTLVTVSA VL: DIVMTQTAPSVPVTPGESVSISCRSSKSLLHSNGNTYLYWFLQRPGQSPQRLIYSVSNLASGVPDRFSGRGSGTDFTLTISRVEAEDVGVYYCMQSLEYPYTFGGGTKLEIK | binds |
| Beacon1-G12 (antibody, V domains shown, Mouse-derived) VH: EIQLVQSGPELKKPGKTVKISCKASGYTFTTYGMSWVKQAPGKALKWMGWINTYSGVPTYADDFKGRFAFSLETSASTAYLQINNLKNEDTATYFCAIRRLSITLHGMDYWGQGTSVTVS VL: DIQMTQSPASLSVSVGETVTITCRASENIYSNLAWYQQKQGKSPQLLVYGATNLADGVPSRFSGSGSGTQYSLKINSLQSEDFGSYYCQHFWGTPWTFGGGTKLEIK | binds |
| CNGs-1B7-E4 (antibody, V domains shown, Mouse-derived; tested at the screening stage) VH: EVQLVESGGGLVQPRGSLKLSCAASGFTFNTYAMNWVRQAPGNGLEWVARIRSKSYNYATYHAGSVKDRFTISRDDSQNMLYLQMNNLKTEDTAMYYCMRGQTYWGQGTLVTVSA VL: DVVLTQTPLSLPVNIGDQASISCKSTKSLLNSDGFTYLDWHLQKPGQSPQLLIYLVSNRFSGVPDRFSGSGSGTDFTLKISRVEAEDLGVYYCFQSNYLPFTFGSGTKLEMK | binds |
| CNGs-3H2-B7 (antibody, V domains shown, Mouse-derived; tested at the screening stage) VH: EVQLVESGGGLVQPKGSLKLSCAASGVSFKTYAMTWVRQAPGKGLEWVARIRSKRYNYATYYADSVKDRFTISRDDSESMLYLQMNNLKTEDTAMYYCMRQGAYWGQGTLVTVSA VL: DVVLTQTPLSLPVNIGDQASISCKSTKSLLNSDGFTYLDWYLQKPGQSPHLLIYLVSNRFSGVPDRFSGSGSGTDFTLKISRVEAEDLGVYYCFQSNYLPFTFGSGTKLEIK | binds |
| Beacon2-A3 (antibody, V domains shown, Mouse-derived; tested at the screening stage) VH: EVQIVESGGGLVQPKGSLKLSCAASGFSFNTYAMNWVRQAPGKGLEWVARIRTKRNNYVKFYADSVKDRFTISRDDSESMLYLQMNILKTEDTAMYYCVRQGAYWGQGTLVTVSA VL: DVVLTQTPLSLPVNIGDQASISCKSTKSLLNSDGFTYLDWYLQKPGQSPQLLIYLVSNRFSGVPDRFSGSGSGTDFTLKISRVEAEDLGVYFCFQSNYLPYTFGGGTKLEIK | binds |
| Beacon2-E5 (antibody, V domains shown, Mouse-derived; tested at the screening stage) VH: EVQLVESGGGLVQPKGSLKLSCAASGFSFNTYAMNWVRQAPGKGLEWVARIRTKRNNYVKFYADSVKGRFTISRDDSQSMLYLQMNNLKAEDTAIYYCVRQGAFWGQGTLVTVSA VL: DVVLTQTPLSLPVNIGDQASISCKSTKSLLNSDGFTYLDWYLQKPGQSPQLLIYLVSNRFSGVPDRFSGSGSGTDFTLRISRVEAEDLGVYYCFQSNYLPYTFGGGTKLEIK | binds |
| COXs-11H4 (antibody, V domains shown, Mouse-derived; tested at the screening stage) VH: EVQLVESGGGLVQPKGSLKLSCAASGFTFNTYAMNWVRQVPGKGLEWIARMRSESKNFATYYADSVKDRFTISRDDSESILYLQMNNLKTEDTGMYYCVRQGNFDVWGTGTTVTVSS VL: DVVMTQAPLSLSVSLGDQASISCRSGQNIVHTDGNTYLYWSLQKPGQSPNLLIYKVSNRFSGVPDRFSGSGSGTDFTLKINRVEAEDMGVYYCFQLTHVPYTFGGGTKLEIK | binds |
| COXs-2D2 (antibody, V domains shown, Mouse-derived) VH: EVQLVESGGGLVQPKGSLKLSCTASGFSFDTYAMNWVRQAPGKGLEWIARIRSKSKNYATYYADSVKDRFTISRDDSANILYLQMNNLKTEDTAIYYCLRQGSFDYWGQGTTLTVSS VL: DVVLTQTPLSLPVSLGDQASISCRSGQRIVHTDGNTYLYWYLQKPGQSPKLLIYRVSNRFSGVPDRFSGSGSGTDFTLKISRVEAEDMGIYYCFQGTHFPYTFGGGTKLEIK | binds |
| COXs-11E5 (antibody, V domains shown, Mouse-derived; tested at the screening stage) VH: EVQLVESGGGLVQPKGSLKLSCTASGFSFDTYAMNWVRQAPGKGLEWVARIRSKSKNYATYYADSVKDRFTVSRDDSANILYLQMNNLKTEDTAIYYCLRQGSFDYWGQGTTLTVSS VL: DVVMTQTPLSLPVSLGDQASISCRSSQRIVHTDGNTYLYWYLQKPGQSPKLLIYRVSNRFSGVPDRFSGSGSGTDFILKISRVEAEDMGIYYCFQGTHFPYTFGGGTKLEIK | binds |
| COXs-4H5 (antibody, V domains shown, Mouse-derived; tested at the screening stage) VH: EIQLVQSGPELKKPGKTVKISCKASGYTFTTYGMSWVKQAPGKALKWMGWINTYSGVPTYADDFKGRFAFSLETSASTAYLQINNLKNEDTATYFCAIRRLSITLHGMDYWGQGTSVTVS VL: DVVMTQSPLSLPVSLGDQASIYCRSSQRIVHSDGNTYLYWYLQRPGQSPKLLIYRVSNRFSGVPDRFSGSGSGTDFTLKISRVEAEDMGIYYCFQGTHFPYTFGGGTKLEIK | binds |
| COXs-9D6 (antibody, V domains shown, Mouse-derived; tested at the screening stage) VH: EVHLVESGGGLVQPKGSLKLSCTASGFSFDTYAMNWVRQAPGKGLEWVARIRSKSKNYATYYADSVTDRFTISRDDSANILYLQMNNLKTEDTAIYYCLSQGSFDYWGQGTTLTVSS VL: DVVMTQTPLSLPVSLGDQASISCRSSQRIVHTDGNTYLYWYLQKPGQSPKLLIYRVSNRFSGVPDRFSGSGSGTDFILKISRVEAEDMGIYYCFQGTHFPYTFGGGTKLEIK | binds |
| COXs-12E7 (antibody, V domains shown, Mouse-derived; tested at the screening stage) VH: EVHLVESGGGLVQPKGSLKLSCKASGFSFDTYAMNWVRQAPGKGLEWVARIRSKSKSYATYYADSVKDRFTISRDDSANILYLQMNNLKTEDTAIYYCLRQGSFDYWGQGTTLTVSS VL: DVVMTQTPLSLPVSLGDQASIYCRSSQRIVHSDGNTYLYWYLQRPGQSPKLLIYRVSNRFSGVPDRFSGSGSGTDFTLKISRVEAEDMGIYYCFQGTHFPYTFGGGTKLEIK | binds |
| COXs-2D4 (antibody, V domains shown, Mouse-derived; tested at the screening stage) VH: EVHLVESGGGLVQPKGSLKLSCTASGFSFDTYAMNWVRQAPGKGLEWIARIRSKSKNSATYYADSVKDRFTISRDDSANILYLQMNNLKTEDTAIYYCLRQGSFDYWGQGTTLTVSS VL: DVVMTQTPLSLPVSLGDQASISCRSSQRIVHTDGNTYLYWYLQKPGQSPKLLIYRVSNRFSGVPDRFSGSGSGTDFTLKITRVEAEDMGIYYCFQGTHFPYTFGGGTKLEIK | binds |
| CNE-7B1 (antibody, V domains shown, Mouse-derived; tested at the screening stage) VH: QVQLQQSGPELVKPGTSVRISCKTSGYTFTSSYVHWVKRRPGQGLEWIGWIYPGNDYTKYNEKFKGKATLTADKSSSTAYMRLSSLASEDSAVYFCTRSYYGFDYWGQGTTLTVSS VL: DVLMTQTPLSLPVSLGDQASISCRSGQSIVRSRGNTYLEWYLQKPGQSPKLLIYKVSNRFSGVPDRFSGSGSGTDFTLKISRVEAEDLGVYYCFQGSHVPYTFGGGTKLEIK | binds |
| CNGs-1E1-G5 (antibody, V domains shown, Mouse-derived; tested at the screening stage) VH: QVQLQQSGPELVKPGASVRISCKASGYTFTTSYIHWVKQRPGQGLEWIGWISPGNVNTRSNEKFKGKATLTADKSSNTAYMQLSSLTSEDSAVYFCAKSYFGFDFWGQGTTLTVSS VL: DVLMTQTPLSLPVSLGDQASISCRSSQSIVHSNGNTYLEWYVQKPGQSPKLLIYKVSNRSSGVPDRFSGSGSGTDFTLKISRVEAEDLGVYYCFQGSHVPYTFGGGTKLEIK | binds |
| COXs-7A7 (antibody, V domains shown, Mouse-derived; tested at the screening stage) VH: EVQLMESGGGLVKPGGSRKLSCAASGFTFSDYGMHWVRQAPEKGLEWIAYINSGSSTIHYADSVKGRFTISRDNAKNTLFLQMTSLRSEDTAMYYCVRPGFAYWGQGTLITVSA VL: DIVMTQTPLTLSTTVGQSAFISCRSSQSLLHRNGNTYLNWFLQRPGQSPQLLVYEIFERKSGVPDRFSGSGSGTDFTLKISRVEAEDLGVYYCMQATYEPLTFGAGTKLELK | binds |
| COXs-7E6 (antibody, V domains shown, Mouse-derived; tested at the screening stage) VH: EVQLMESGGGLVKPGGSRKLSCAASGFTFSDHGMHWVRQAPEKGLEWIAYINSGSSTIHYADSVKGRFTISRDNAKNTLFLHMTSLRSEDTAMYYCVRPGFAYWGQGTLITVSA VL: DIVMTQTPLTLSITVGQSAFISCRSSQSLLHRNGNTYLNWFLQRPGQSPQLLVYEIFERKSGVPDRFSGSGSGTDFTLKISRVEAEDLGVYYCMQATYEPLTFGAGTKLELK | binds |
